Experiment: soluble on expression in E. coli; label from the status in PepcDB or PDB records

Sequence | soluble on expression in E. coli
MSHHHAPVDFEKEASILRNHFNNAEIDLLLLIKKHVMYGAKNPTKWKFIQQSRLIRFKRELKAHISLFKDETRNKIDKLTYRVYLDCVNEYEDEMEARYQTKKEVDIQNDDYLSESDALIQISEDMANYWQKIAPSKYKQVVKETKDSNGVLKYAIATSLINVLGDGIRNVIDQSGRKYRPGAYMEMASRGAFFNVGLNAMKRVLGRYEHELVQVSAHVRSCPRCAPWQGEVLSVNYESNEYKTLQEAENDGLFHPNCHHFLYSYFEGDETDEPIPYDEEEYEAQSKQRYYERGIRDWKTKDILAEGPSKQYTAGKVKQWEEALQEHLNNN | not soluble
MSHLDNGFRSLTLQRFPATDDVNPLQAWEAADEYLLQQLDDTEIRGPVLILNDAFGALSCALAEHKPYSIGDSYISELATRENLRLNGIDESSVKFLDSTADYPQQPGVVLIKVPKTLALLEQQLRALRKVVTPDTRIIAGAKARDIHTSTLELFEKVLGPTTTTLAWKKARLINCTFNEPPLADAPQTVSWKLEGTDWTIHNHANVFSRTGLDIGARFFMQHLPENLEGEIVDLGCGNGVIGLTLLDKNPQAKVVFVDESPMAVASSRLNVETNMPEALDRCEFMINNALSGVEPFRFNAVLCNPPFHQQHALTDNVAWEMFHHARRCLKINGELYIVANRHLDYFHKLKKIFGNCTTIATNNKFVVLKAVKLGRRR | soluble
MSHTVAGGGSGDHSHQVRVKAYYRGDIMITHFEPSISFEGLCNEVRDMCSFDNEQLFTMKWIDEEGDPCTVSSQLELEEAFRLYELNKDSELLIHVFPCVPERPGMPCPGEDKSIYRRGARRWRKLYCANGHTFQAKRFNRRAHCAICTDRIWGLGRQGYKCINCKLLVHKKCHKLVTIECGRHSLPQEPVMPMDQSSMHSDHAQTVIPYNPSSHESLDQVGEEKEAMNTRESGKASSSLGLQDFDLLRVIGRGSYAKVLLVRLKKTDRIYAMKVVKKELVNDDEDIDWVQTEKHVFEQASNHPFLVGLHSCFQTESRLFFVIEYVNGGDLMFHMQRQRKLPEEHARFYSAEISLALNYLHERGIIYRDLKLDNVLLDSEGHIKLTDYGMCKEGLRPGDTTSTFCGTPNYIAPEILRGEDYGFSVDWWALGVLMFEMMAGRSPFDIVGSSDNPDQNTEDYLFQVILEKQIRIPRSMSVKAASVLKSFLNKDPKERLGCLPQTGFADIQGHPFFRNVDWDMMEQKQVVPPFKPNISGEFGLDNFDSQFTNERVQLTPDDDDIVRKIDQSEFEGFEYINPLLMSAEECV | not soluble
MSIESLNAFSMDFFSLKGKTAIVTGGNSGLGQAFAMALAKAGANIFIPSFVKDNGETKEMIEKQGVEVDFMQVGITAEGAPQKIIAACERFGTVDILVNNAGICKLNKVLDFGRADWDPMIDVNLTAAFELSYEAAKIMIPQKSGKIINICSLFSYLGGQWSPAYSATKHALAGFTKAYCDELGQYNIQVNGIAPGYYATDITLATRSNPETNQRVLDHIPANRWGDTQDLMGAAVFLASPASNYVNGHLLVVDGGYLVR | soluble
MSIHICQPVSPKENPNGILNNSRPTTALSGLPELHTVGQGADLEIWTKDSHALLFLLKGEPAVFVGPESGNSQLSGDNVVLLAANLRIRLRAEKGPATLICFYFHPTLHLCLGICPSSGNKKECRRRTEIVHISSLQRETMVNSWLHSVMGYLSEMPTSSEIFELKLRELFCIFRSRYEKPLLDNFLSSFHCQNKGFRAFVFRHHLECRSAEELAAKMNLSLSSFKRHFNQEFSCPPLKWMHEERAKHVYTDLADPSLSLKAIAEKNLFSSVSYLCAFCRKMLGNTPLQLRKAMGQQPK | not soluble
MSIPINFNNLKYLLNDMRNKNRIIEAFPFNYNQRQYAVILTRYKPDEPRPDDYAQAKLEFFNLNSENSIFAYADFYEVHFKSATDFINFFKINVQAGAAKIREIFQSFSNLFADFIPTQTKKDLDIIYKKIVATRLEPNSPNTIYCYDVRRNGKDKAGKPNRRSVENSEKAKILRPELYEKFKADSNYSFFFSDNPSDEKTDAEIIREVTNRQ | not soluble
MSIQHFRVALIPFFAAFCLPVFAHPETLVKVKDAEDQLGARVGYIELDLNSGKILESFRPEERFPMMSTFKVLLCGAVLSRIDAGQEQLGRRIHYSQNDLVEYSPVTEKHLTDGMTVRELCSAAITMSDNTAANLLLTTIGGPKELTAFLHNMGDHVTRLDRWEPELNEAIPNDERDTTMPVAMATTLRKLLTGELLTLASRQQLIDWMEADKVAGPLLRSALPAGWFIADKSGAGERGSRGIIAALGPDGKPSRIVVIYTTGSQATMDERNRQIAEIGASLIKHW | soluble
MSISWSMSRNMFKLAHISDVHLGPLPRLSIQELFSKRITGFVNWHRNRRKHLFASTLDLLLDDIRTHRADHLAVTGDLVNLASGIEIRAAAAWLRALGDPADTSVVPGNHDAYVPGAYEKSMRAWYDYVRGDLAPPQWQEDRRIFPYLRVRDKVAIVGCSTAVATPPFAASGFFSARQARDTVNMLRAAGEAGLFRVVMIHHPPIRGATAFHKRMIGIRRFAAVISTGGAELVLHGHTHLNTLHWLRGQVQPVPVVGIASASQGPGSIKPPAAYNLFSIDGAPGAWELTGERFSLNRTGDAMMPESVDIFAPLEHHHHHH | not soluble
MSITYSAISFSGFSPKSVPFAIHSVTRRQFLNPNTFYRFGFSPSLQGSSIEFSLQLNSRVVLSKERRSLPLVVRNDRPQNEDLPKQYTRREKKPFPVPIVDLRRAARERVKNNKDKPKRPLPPPKNGMVVKSLVPLAYKVYNARIRLINNLHRLMKVVRVNACGWCNEIHVGPYGHPFKSCKGPNTSQRKGLHEWTNSVIEDVIVPLEAYHLFDRLGKRIRHDERFSIPRVPAVVELCIQGGVEIPEFPAKRRRKPIIRIGKSEFVDADETELPDPEPQPPPVPLLTELPVSEITPPSSEEETVSLAEETLQAWEEMRAGAKKLMRMYRVRVCGYCPEVHVGPTGHKAQNCGAFKHQQRNGQHGWQSAVLDDLIPPRYVWHVPDVNGPPMQRELRSFYGQAPAVVEICAQAGAVVPEHYRATMRLEVGIPSSVKEAEMVV | soluble
MSKADENDANLTENGVHKSRSDSEINSHTSSIHKSSSQHRRLFIDDISTIEASAGDRVWATCSGAGDATELITIHFLGDQFEESAIDVVRKHSLVMFTVPSLKVDSELEVELRFSTSNDNVTTISFKYLPRKIQRSHTQEISLFDNLLEFATNGDTISLLQPFVAQISKQDIEGNTVFHVAAKNGQSFSLKLLLSVIPPDIKNEVINVQNTHGLTALHVAIRTGDPDAVHYLMNHGAKIDISDNHGSTALHYLGDAYNESIFKEILEPSRGQRFDVNQLNSEGFAPIHVAVRRLKLSLIEMLIEAGALIDFLDTEKKRNALMHAIEMNDFETIQLLVERGSGTNIEDESGETALSLAVKNVNYPVIGLLLDNGADPNRQNSKGICLADSEDSVIQNIINGDRPELPKKEAFGVPNDLAISRSPLFGRSHPDQAPGEESGRHRVVKRSREEILNDAQTLLAETDSMAPRVSRISTSESEDEQQPGPSTSSGTRRRRSEWDRNPKLSDSVCNLDYLTRIRVAKIFDDQCKWQRLAQQLNCDHMVELISICSSGDDSSPTMILLDQFEQLEDSSISRLRDAMNQMAEDDAVKLIDSRYVY | not soluble
MSKDLVHPSLIRAGIVELEMAEETTDLINRTIESNQAHLQGEPLYVDSLPEDMSRLRIEDKSRRTKTEEEERDEGSSEEDNYLSEGQDPLIPFQNFLDEIGARAVKRLKTGEGFFRVWSALSDDIKGYVSTNIMTSGERDTKSIQIQTEPTASVSSGNESRHDSESMHDPNDKKDHTPDHDVVPDIESSTDKGEIRDIEGEVAHQVAESFSKKYKFPSRSSGIFLWNFEQLKMNLDDIVKAAMNVPGVERIAEKGGKLPLRCILGFVALDSSKRFRLLADNDKVARLIQEDINSYMARLEEAE | soluble
MSKIDFHTHYLPTSYVEALKRHVPGDPDGWPTPEWTPQLTLNFMRDNDISYSILSLSSPHVNFGDKAETIRLVEAANDDGKSLAQQYPDQLGYLASLPIPYELDAVKTVQQALDQDGALGVTVPTNSRGLYFGSPVLERVYQELDARQAIVALHPNEPAILPKNVDIDLPVPLLGFFMDTTMTFINMLKYHFFEKYPNIKVIIPHAGAFLGIVDDEIAQYAQKVYQVDVYDVMHHVYFDVAGAVLPRQLPTLMSLAQPEHLLYGSDIPYTPLDGSRQLGHALATTDLLTNEQKQAIFYDNAHRLLTELEHHHHHH | not soluble
MSKIFEDNSLTIGHTPLVRLNRIGNGRILAKVESRNPSFSVKCRIGANMIWDAEKRGVLKPGVELVEPTSGNTGIALAYVAAARGYKLTLTMPETMSIERRKLLKALGANLVLTEGAKGMKGAIQKAEEIVASNPEKYLLLQQFSNPANPEIHEKTTGPEIWEDTDGQVDVFIAGVGTGGTLTGVSRYIKGTKGKTDLISVAVEPTDSPVIAQALAGEEIKPGPHKIQGIGAGFIPANLDLKLVDKVIGITNEEAISTARRLMEEEGILAGISSGAAVAAALKLQEDESFTNKNIVVILPSSGERYLSTALFADLFTEKELQQ | soluble
MSKIRVHEYAKKHNISSKDLMTKLKEMNIEVSNHMTMLDDEVVNKLDNEYQAEKPSVADEFEVEEKVVRSKKNSNKKKKKGKGNEDKRQENFAGRQQTQTVETPDKITFSGSLTVGDLAKKLSKEPSEIIKKLFMLGIMATINQDLDKDTIELIANDYGIEVEEEVIVSETEFETFIDEQDDEENLKERPAVVTIMGHVDHGKTTLLDSIRNSKVTAGEAGGITQHIGAYQVELNDKKITFLDTPGHAAFTTMRARGAQVTDITIIVVAADDGVMPQTVEAINHAKAAGVPIIVAVNKMDKPAANPDRVMQELTEYELVPEAWGGDTIFVPISAIQGEGIDNLLEMILLISEVEEYKANPNRYATGTVIEAQLDKGKGTIATLLVQNGTLRVGDPIVVGTSFGRVRAMVSDIGRRVKVAGPSTPVEITGLNEVPQAGDRFMAFADEKKARQIGESRAQEALLAQRGEKSKLSLEDLFQQIQEGDVKEINLIVKADVQGSVEAMAASLRKIDVEGVKVKIIHTGVGAITESDIILASASNAIVIGFNVRPDVNAKRTAELENVDIRLHRIIYKVIEEIEAAMQGMLDPEFEEKVIGQAEVRQTFKVTKVGTIAGCYVTDGKITRDSGVRIIRDGVVIFEGQLDTLKRFKDDVKEVAQNYECGITIERYNDLKEGDIIEAYIMEEVKR | not soluble
MSKKFVNKAEEAVDDALFGLVSSNSNVKFHKSCRRVVHITDLNPSHHVSLIAGGGSGHEPYAAGYVGKGLLTAAIAGNVFASPPSRNVQAALEATRGEAGAILFVINYTGDRLNFGLAAERFNASGGTARVVTIADDVAIDSPNSKVGRRGLAGAVLTIKIAGAMAWEGKSLDEIYETSQKVVSSMGTLGVSLYTGSLPGKNRETELPDDQIEVGLGIHGEPGKFRAQFGSANRIVHSLLDTLRSKMEMREGEKFVVLVNNLGSVSQLEMNIVNGEVLRYFEDHKIGITRFFSGIYMTSLDGHGVSVTILRADDSMLQYLDAPAAAPGWIPALSVQKCVDHQEISDSSSQGDLISEIPASGVTVNAQLVEACVGGVVDAMLESEKHLNQLDAYAGDGDCGSTFAGAAEAIRKQTSGLNYTHPETLLKQLSIIFEQTVGGTSGALYALMFSSAAQSFAQRSQRGEKIDRTSILEALDKANRAVQKYGGARVGDRTMVDGLDAMVEELRKGFSGNEESLDAIFEAAVKASEKAAKATASQTATVGRASYTSSEAQTKPDAGATAISLWLRACWTAYKSEK | not soluble
MSKLAIIAGDGIGPEVTAEAVKVLDAVVPGVQKTSYDLGARRFHATGEVLPDSVVAELRNHDAILLGAIGDPSVPSGVLERGLLLRLRFELDHHINLRPARLYPGVASPLSGNPGIDFVVVREGTEGPYTGNGGAIRVGTPNEVATEVSVNTAFGVRRVVADAFERARRRRKHLTLVHKTNVLTFAGGLWLRTVDEVGECYPDVEVAYQHVDAATIHMITDPGRFDVIVTDNLFGDIITDLAAAVCGGIGLAASGNIDATRANPSMFEPVHGSAPDIAGQGIADPTAAIMSVALLLSHLGEHDAAARVDRAVEAHLATRGSERLATSDVGERIAAAL | soluble

Source: the DeepSol protein solubility set
